Source: US20260250420A1 (SICHUAN KELUN BIOTECH BIOPHARMACEUTICAL, published 2026)

T1: human PTK7 on cells (tumor cells endogenously expressing PTK7); CHO-hPTK7, CHO-S-hPTK7 and 293T-hPTK7 … (human, UniProt Q13308 31-1070)
T1 construct: whole, on cells; The cell line of each value is named under assay; also called H1299; H358
T1 sequence (looked up): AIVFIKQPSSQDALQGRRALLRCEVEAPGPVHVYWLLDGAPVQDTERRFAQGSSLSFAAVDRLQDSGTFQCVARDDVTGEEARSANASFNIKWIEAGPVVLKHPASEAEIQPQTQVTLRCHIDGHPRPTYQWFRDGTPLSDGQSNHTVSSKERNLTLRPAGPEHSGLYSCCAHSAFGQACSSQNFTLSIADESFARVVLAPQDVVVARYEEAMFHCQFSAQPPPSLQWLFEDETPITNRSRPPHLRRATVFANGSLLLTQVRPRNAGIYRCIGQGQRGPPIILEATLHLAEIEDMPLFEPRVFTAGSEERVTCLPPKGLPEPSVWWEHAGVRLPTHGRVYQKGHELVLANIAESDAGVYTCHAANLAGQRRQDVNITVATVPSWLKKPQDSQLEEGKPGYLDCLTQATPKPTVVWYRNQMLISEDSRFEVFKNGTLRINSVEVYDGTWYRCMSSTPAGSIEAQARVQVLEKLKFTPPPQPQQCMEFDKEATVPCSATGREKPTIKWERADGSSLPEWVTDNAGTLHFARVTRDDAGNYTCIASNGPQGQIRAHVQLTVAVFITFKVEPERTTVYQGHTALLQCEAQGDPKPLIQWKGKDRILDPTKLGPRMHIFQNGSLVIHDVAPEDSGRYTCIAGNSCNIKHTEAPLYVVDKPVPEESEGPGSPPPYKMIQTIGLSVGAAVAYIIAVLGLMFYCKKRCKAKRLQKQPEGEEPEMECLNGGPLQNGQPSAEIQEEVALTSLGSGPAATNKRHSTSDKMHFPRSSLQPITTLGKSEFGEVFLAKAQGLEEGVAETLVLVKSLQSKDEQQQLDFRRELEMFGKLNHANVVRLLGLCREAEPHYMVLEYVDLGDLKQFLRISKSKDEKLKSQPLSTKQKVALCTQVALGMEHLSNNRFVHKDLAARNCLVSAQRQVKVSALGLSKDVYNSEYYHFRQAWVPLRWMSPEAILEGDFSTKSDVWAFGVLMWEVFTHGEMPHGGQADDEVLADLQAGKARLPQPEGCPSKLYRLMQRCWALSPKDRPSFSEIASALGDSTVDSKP

T2: human Fc receptor protein CD32b (human, UniProt P31994 43-217, biotinylated)
T2 construct: Biotinylated protein captured on SA sensors
T2 sequence (looked up): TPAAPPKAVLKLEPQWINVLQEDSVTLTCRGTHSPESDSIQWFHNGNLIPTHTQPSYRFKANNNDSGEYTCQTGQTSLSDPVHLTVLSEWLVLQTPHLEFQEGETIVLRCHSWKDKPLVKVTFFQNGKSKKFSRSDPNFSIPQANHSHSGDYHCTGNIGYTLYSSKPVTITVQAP

T3: human Fc receptor protein CD32a (human, UniProt P12318 34-217, biotinylated)
T3 construct: Biotinylated protein captured on SA sensors
T3 sequence (looked up): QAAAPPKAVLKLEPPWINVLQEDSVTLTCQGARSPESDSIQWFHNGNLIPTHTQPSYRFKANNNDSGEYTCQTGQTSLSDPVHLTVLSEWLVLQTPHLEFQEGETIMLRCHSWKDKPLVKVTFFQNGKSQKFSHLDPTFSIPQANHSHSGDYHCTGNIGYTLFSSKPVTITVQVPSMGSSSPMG

B1: 101A6HZ (anti-human PTK7 humanized antibody) (antibody, human IgG1, kappa)
heavy: not shown
light: DIVMTQSPDSLAVSLGERATINCKASQDVGSAVIWYQQKPGQSPKLLIYWASTRHTGVPDRFSGSGSGTDFTLTISSLQAEDVAVYYCQQYSSYPLTFGQGTKLEIKRTVAAPSVFIFPPSDEQLKSGTASVVCLLNNFYPREAKVQWKVDNALQSGNSQESVTEQDSKDSTYSLSSTLTLSKADYEKHKVYACEVTHQGLSSPVTKSFNRGEC
B2: Hu24 (PTK7 control antibody, taken from Hu24 in the Patent CN201580030255) (antibody)
chain 1: QVQLVQSGPEVKKPGASVKVSCKASGYTFTDYAVHWVRQAPGKRLEWIGVISTYNDYTYNNQDFKGRVTMTRDTSASTAYMELSRLRSEDTAVYYCARGNSYFYALDYWGQGTSVTVSS
chain 2: EIVLTQSPATLSLSPGERATLSCRASESVDSYGKSFMHWYQQKPGQAPRLLIYRASNLESGIPARFSGSGSGTDFTLTISSLEPEDFAVYYCQQSNEDPWTFGGGTKLEIK
B3: 64A10HZ (anti-human PTK7 humanized antibody) (antibody, human IgG1, kappa, V domains shown)
VH: QVQLQESGPGLVKPSETLSLTCTVSGFSLTSYGVYWVRQPPGKGPEWLGVIWTSGNTNYNPSLKSRLTISKDNSKNQVSLKLSSVTAADTAVYYCVKHDGGNYVGVMNYWGQGTLVTVSS
VL: EIVMTQSPDFQSVTPKEKVTITCRASQSISDYLHWYQQKPDQSPKLLIKYASQSISGVPSRFSGSGSGSDFTLTINSLEAEDAATYYCQNGHSFPPTFGQGTKLEIKR
notes: Human IgG1 heavy chain constant region and human Kappa light chain constant region; expressed in CHO-S cells

What was measured:
[1] = target: T1, human PTK7 on cells (tumor cells …); test: flow cytometry on CHO-hPTK7 overexpression cells
Description: (§1) A flow cytometer (Beckman, Cytoflex) was used for detecting the affinity of the anti-human PTK7 chimeric and humanized antibodies with human non-small cell lung cancer cells H1299, human lung adenocarcinoma cells H1975, human breast cancer cells T47D, human ovarian cancer cells OVCAR-3 (all purchased from NANJING COBIOER BIOSCIENCES CO., LTD) and CHO-hPTK7 overexpression cells.
(§2) The adherent cells were digested by using a pancreatin (Gibco) solution; a proper amount of cells were counted and taken, washed twice by using 1×PBS, and re-suspended in a 1% BSA solution; and then the cells were transferred into a 96-well deep plate at a density of 50 μl/well; a candidate antibody was diluted by using 1% BSA, then 50 μl of diluted antibody was added into the deep plate containing the cells, and incubated for 40 min at 4° C.; the cells were washed twice by using PBS, then 50 μl of diluted secondary antibody was added into each well, uniformly mixed, and incubated for 30 min at 4° C.; and the cells were washed twice by using PBS, then re-suspended in 400 μl of PBS, and subjected to examination by flow cytometer.

[2] = target: T1, human PTK7 on cells (tumor cells …); test: flow cytometry on H1975 cells
Description: as §1, §2

[3] = target: T4, human Fc receptor protein CD16a (human, UniProt P08637 17-208, biotinylated); test: BLI (ForteBio), biotinylated receptor on SA sensor, antibody from 5,000 nM, 1:1 global fit
T4 construct: Biotinylated protein captured on SA sensors
T4 sequence (P08637 17-208 limits assumed): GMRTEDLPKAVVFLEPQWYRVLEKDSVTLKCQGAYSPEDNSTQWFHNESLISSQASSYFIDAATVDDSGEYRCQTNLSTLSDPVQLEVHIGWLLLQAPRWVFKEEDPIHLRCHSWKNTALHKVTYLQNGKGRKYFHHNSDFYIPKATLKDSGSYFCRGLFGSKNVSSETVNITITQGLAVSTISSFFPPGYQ
Description: (§3) The dynamic affinity of the antibodies 101A6HZ, 101A6HZm and Hu24 with human Fc receptor proteins CD16a, CD32a, CD32b, CD64 and FcRn was detected through ForteBio (Pall life sciences).

[4] = target: T2, human Fc receptor protein CD32b; test: as above
Description: as §3

[5] = target: T3, human Fc receptor protein CD32a; test: as above
Description: as §3

[6] = target: T5, human Fc receptor protein CD64 (human, UniProt P12314 16-292, limits assumed, biotinylated); test: as above
T5 construct: Biotinylated protein captured on SA sensors
T5 sequence (P12314 16-292 limits assumed): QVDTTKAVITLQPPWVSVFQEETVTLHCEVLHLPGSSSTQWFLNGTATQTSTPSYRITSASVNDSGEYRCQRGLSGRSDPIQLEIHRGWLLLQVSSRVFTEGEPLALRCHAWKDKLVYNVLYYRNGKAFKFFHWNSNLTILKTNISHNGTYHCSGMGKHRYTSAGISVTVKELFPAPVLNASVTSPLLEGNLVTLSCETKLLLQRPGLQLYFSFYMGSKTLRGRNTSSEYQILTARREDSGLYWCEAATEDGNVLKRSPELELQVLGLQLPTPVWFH
Description: as §3

[7] = target: T6, rat PTK7 protein (extracellular sequence of rat PTK7 with C-terminal 6×His tag) (rat, UniProt A0A8I6ALM9 40-713); test: ELISA, coated rat PTK7 protein
T6 construct: extracellular domain; Expressed transiently in HEK293 cells

[8] = target: T1, human PTK7 on cells (tumor cells …); test: flow cytometry on H1299 cells
Description: as §1, §2

[9] = target: T1, human PTK7 on cells (tumor cells …); test: flow cytometry on OVCAR-3 cells
Description: as §1, §2

Binder | EC50 [1] | EC50 [2] | Kd [3] | Kd [4] | Kd [5] | Kd [6] | binding result [7] | EC50 [8] | EC50 [9]
B1 | 0.176 mg/L | 0.178 mg/L | 1.01 µM | 1.78 µM | 2.27 µM | 0.000508 µM | no binding | 0.0843 mg/L | –
B2 | 0.308 mg/L | 0.134 mg/L | 1.19 µM | 1.76 µM | 1.73 µM | 0.000465 µM | – | 0.0649 mg/L | 0.123 mg/L
B3 | – | 0.0767 mg/L | – | – | – | – | no binding | 0.0475 mg/L | 0.0613 mg/L
